Reference: publication PMC6265484, “Homodimerization regulates an endothelial specific signature of the SOX18 transcription factor” (Nucleic Acids Research, 2018)

Legend:
Experiment in all cases: single-molecule two-colour coincidence fluorescence spectroscopy; GFP- and Cherry-tagged proteins made in LTE, diluted to about 100 pM, confocal detection with 488 and 561 nm lasers, room temperature; coincidence ratio C = mCherry/(GFP + mCherry)
RXRA = molecular target: T1, RXRA (UniProt P19793 1-462); conditions: partners not purified
T1 sequence (looked up): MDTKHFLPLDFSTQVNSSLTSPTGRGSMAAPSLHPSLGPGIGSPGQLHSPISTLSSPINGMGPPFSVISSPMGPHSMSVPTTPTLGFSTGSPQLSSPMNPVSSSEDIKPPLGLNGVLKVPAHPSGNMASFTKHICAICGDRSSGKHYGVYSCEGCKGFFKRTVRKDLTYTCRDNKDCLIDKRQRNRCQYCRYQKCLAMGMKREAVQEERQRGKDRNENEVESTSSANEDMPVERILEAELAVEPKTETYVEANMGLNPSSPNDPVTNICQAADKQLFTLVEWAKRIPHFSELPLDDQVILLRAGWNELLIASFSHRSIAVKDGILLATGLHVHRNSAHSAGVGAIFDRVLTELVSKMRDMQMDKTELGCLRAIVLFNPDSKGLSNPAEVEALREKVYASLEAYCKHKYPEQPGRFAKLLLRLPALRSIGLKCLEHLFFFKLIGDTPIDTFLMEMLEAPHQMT

human MEF2C = human MEF2C (human, UniProt Q06413 1-473); conditions: partners not purified
human RBPJ = human RBPJ (human, UniProt Q06330 1-500); conditions: partners not purified
[1] = molecular target: the molecule itself

Chain of human RBPJ (Q06330 whole entry): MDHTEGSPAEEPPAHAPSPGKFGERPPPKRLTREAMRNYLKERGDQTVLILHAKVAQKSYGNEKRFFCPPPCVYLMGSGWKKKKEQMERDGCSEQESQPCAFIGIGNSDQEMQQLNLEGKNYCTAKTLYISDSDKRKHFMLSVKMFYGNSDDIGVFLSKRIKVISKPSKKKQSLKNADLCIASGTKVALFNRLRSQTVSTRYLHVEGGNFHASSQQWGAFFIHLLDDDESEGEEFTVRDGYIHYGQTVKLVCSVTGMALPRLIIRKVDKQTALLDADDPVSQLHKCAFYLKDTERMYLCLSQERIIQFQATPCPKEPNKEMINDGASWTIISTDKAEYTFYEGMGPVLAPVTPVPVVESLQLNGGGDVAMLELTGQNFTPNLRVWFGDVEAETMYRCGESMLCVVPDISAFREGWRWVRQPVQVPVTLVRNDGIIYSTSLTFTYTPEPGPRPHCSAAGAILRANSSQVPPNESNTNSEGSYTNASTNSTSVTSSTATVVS
Chain of human MEF2C (Q06413 whole entry): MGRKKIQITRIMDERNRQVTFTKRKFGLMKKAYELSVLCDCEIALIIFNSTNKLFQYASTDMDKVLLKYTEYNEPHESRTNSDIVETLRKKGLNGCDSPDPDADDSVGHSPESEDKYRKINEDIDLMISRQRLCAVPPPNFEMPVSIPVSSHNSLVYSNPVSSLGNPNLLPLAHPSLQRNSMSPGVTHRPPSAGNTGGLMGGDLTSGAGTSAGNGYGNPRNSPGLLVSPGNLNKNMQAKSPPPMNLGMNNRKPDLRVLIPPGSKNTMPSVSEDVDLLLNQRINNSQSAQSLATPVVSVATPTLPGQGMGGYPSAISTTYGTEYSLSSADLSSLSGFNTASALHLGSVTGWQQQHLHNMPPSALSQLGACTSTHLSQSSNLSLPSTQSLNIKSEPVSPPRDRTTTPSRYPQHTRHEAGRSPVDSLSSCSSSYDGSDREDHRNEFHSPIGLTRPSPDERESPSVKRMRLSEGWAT

B1: full-length human SOX18 (natural protein, UniProt P35713 1-384, looked up)
chain: MQRSPPGYGAQDDPPARRDCAWAPGHGAAADTRGLAAGPAALAAPAAPASPPSPQRSPPRSPEPGRYGLSPAGRGERQAADESRIRRPMNAFMVWAKDERKRLAQQNPDLHNAVLSKMLGKAWKELNAAEKRPFVEEAERLRVQHLRDHPNYKYRPRRKKQARKARRLEPGLLLPGLAPPQPPPEPFPAASGSARAFRELPPLGAEFDGLGLPTPERSPLDGLEPGEAAFFPPPAAPEDCALRPFRAPYAPTELSRDPGGCYGAPLAEALRTAPPAAPLAGLYYGTLGTPGPYPGPLSPPPEAPPLESAEPLGPAADLWADVDLTEFDQYLNCSRTRPDAPGLPYHVALAKLGPRAMSCPEESSLISALSDASSAVYYSACISG
With B1 the “stoichiometry N” value (RXRA) was 1, the “stoichiometry N” value (human MEF2C) was 2 and the “stoichiometry N” value (human RBPJ) was 2. For the same binder, the “stoichiometry N” value [1] was 2.
